Data published in patent CN105384819A (UNIV CHINA PHARMA, dated 2016).

Target: T1, rhDLL4(重组人DLL4) (human, UniProt Q9NR61 27-524, limits assumed)
T1 construct: Immobilised on a CM5 chip for SPR and coated on 96-well plates for the MTT assay; also called 人DLL4抗原; DLL4抗原
Assay: SPR, Biacore X100, rhDLL4 immobilised on CM5 chip, antibody injected at 0.098-12.5 nM

T1 sequence (Q9NR61 27-524 limits assumed): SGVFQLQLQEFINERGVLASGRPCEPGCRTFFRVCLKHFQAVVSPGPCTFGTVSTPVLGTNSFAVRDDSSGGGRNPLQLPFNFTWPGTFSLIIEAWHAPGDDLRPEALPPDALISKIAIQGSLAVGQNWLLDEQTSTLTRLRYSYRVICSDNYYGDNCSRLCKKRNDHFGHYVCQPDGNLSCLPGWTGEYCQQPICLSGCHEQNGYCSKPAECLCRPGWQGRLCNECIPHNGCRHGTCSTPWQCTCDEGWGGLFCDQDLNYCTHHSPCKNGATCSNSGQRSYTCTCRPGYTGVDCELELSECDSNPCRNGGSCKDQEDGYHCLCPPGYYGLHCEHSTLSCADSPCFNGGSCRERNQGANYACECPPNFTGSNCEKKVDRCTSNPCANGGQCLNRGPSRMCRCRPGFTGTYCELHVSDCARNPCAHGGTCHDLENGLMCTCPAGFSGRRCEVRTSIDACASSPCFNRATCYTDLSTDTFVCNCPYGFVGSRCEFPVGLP

Kd: 2.26 pM
B1: 抗人DLL4人源化抗体H3L2 (antibody, human IgG1, lambda, V domains shown)
VH: QVQLVQSGAEVKKPGSSVKVSCKASGYTFSGYWMQWIKQAPGQGLEWIGAIYPGDGDTRYTQKFKGRATLTADKSTSTAYMELSSLRSEDTAVYYCAGGNFFFDYWGQGTLVTVSS
VL: EIVITQSPDFQSVTPKEKVTITCSVSSSISSSYLHWYQQKPDQSPKPWIYGTSNLASGVPSRFSGSGSGTDYTLTINSLEAEDAATYYCQQWSSSPLTFGQGTKLEIKV
notes: also called 抗DLL4人源化抗体
